Test results as given in publication PMC4595974.
pKd: −log10 of the molar value.

Biological target: Aβ42 fibrils (fibrillar Aβ(M1-42))
Test: SPR

Substance: Brichos domain from proSP-C (lung surfactant C precursor protein) (domain or fragment)
- pKd: 7.40
